Results reported in the supplement of paper PMC9732359.
± gives the uncertainty stated by the source.

Experiment: protein stability index of a GFP-peptide fusion (yeast GPS) (PSI 1-4); higher = more stable; sorted into four equal gates, so the index is relative within each strain
How it was run: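 Mid-log yeast cultures in leucine-free medium, carrying a pooled plasmid library, were sorted into four equal gates by their GFP/Cherry fluorescence ratio. Each plasmid expressed Cherry along with GFP fused upstream of a tiled 17-residue yeast protein peptide. Plasmids recovered from each gate were PCR-amplified and Illumina-sequenced, with reads assigned to strains by barcodes. The protein stability index was obtained by summing each gate's read frequency weighted by its gate number.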

Sequence	protein stability index (doa10∆)	protein stability index (pdr5∆)	protein stability index (san1∆)	protein stability index (ubr1∆)
RRRSSTNKSKRPSITEA [MED1]	3.02 ± 0.09	3.15 ± 0.061	2.87 ± 0.08	3.04 ± 0.077
PTGKEEGDGAKAAISFG [YJL041W/NSP1]	3.37 ± 0.11	3.04 ± 0.1	3.35 ± 0.1	3.38 ± 0.069
QLDAYGEKKVGSNGELF [SWP82]	3.28 ± 0.13	3.29 ± 0.089	3.62 ± 0.071	3.32 ± 0.12
YSPTSPSYSPTSPGYSP [RPO21]	2.8 ± 0.044	2.94 ± 0.037	2.95 ± 0.039	2.95 ± 0.034
EGSTIRYLAVTLQDIGF [YMR129W/POM152]	2.5 ± 0.048	2.58 ± 0.04	2.52 ± 0.052	2.71 ± 0.041
ESQEKYMEPFDLDLNEQ [NSL1]	3.29 ± 0.068	3.21 ± 0.057	3.35 ± 0.041	3.3 ± 0.045
YGTENKDGEDIIFNYVP [CSL4]	3.3 ± 0.14	3.21 ± 0.1	2.92 ± 0.085	3.12 ± 0.065
DNLLEMSDHSLDKLNCA [RRP6]	3.28 ± 0.099	3 ± 0.068	3.22 ± 0.1	3.25 ± 0.049
ENGQRDLDRIAAQTLEE [RPS19A]	3.2 ± 0.084	3.16 ± 0.086	3.28 ± 0.097	3.19 ± 0.093
FQNTNTRSALKLVRESE [QCR2]	2.7 ± 0.078	2.94 ± 0.074	2.81 ± 0.088	2.64 ± 0.07
YGKVYKAKRQINSGTNS [SSN3]	2.23 ± 0.066	2.04 ± 0.058	2.49 ± 0.094	2.68 ± 0.053
TRTIKQNNFHVLIDLLN [RGR1]	1.75 ± 0.079	1.62 ± 0.13	1.87 ± 0.15	1.86 ± 0.12
KYNAFIASEVLIKQVPR [RPL1A]	1.73 ± 0.085	1.57 ± 0.06	1.39 ± 0.15	1.66 ± 0.045
ESAPITAEDSWAVISAF [RPB2]	3.17 ± 0.08	2.99 ± 0.062	2.91 ± 0.051	2.99 ± 0.06
AKVNRPAKIVNFEKPKN [RPN5]	2.93 ± 0.069	3.12 ± 0.069	2.89 ± 0.056	3.12 ± 0.054
CSNPTCGAGVFLANHKD [RPS31]	3.06 ± 0.12	2.82 ± 0.21	2.57 ± 0.24	2.73 ± 0.14
DCLDKLLNDECTESTRE [SNF2]	3.5 ± 0.14	3.4 ± 0.13	3.48 ± 0.091	3.41 ± 0.17
ARIFEFPKTTVAALRFT [RPL18A]	1.94 ± 0.11	1.67 ± 0.076	2 ± 0.19	1.79 ± 0.098
NNSAPNNTNNANSSITP [YJL041W/NSP1]	3.01 ± 0.089	2.97 ± 0.11	2.73 ± 0.11	2.72 ± 0.11
SEHVFDYFFYFLVLYDV [NUT1]	2.12 ± 0.039	2.06 ± 0.033	2.26 ± 0.045	2.36 ± 0.034
TDWDPQFNAITGLNGSG [SMC2]	2.94 ± 0.19		2.3 ± 0.19	
VSMYQNSSTSSTSNTPS [YDL088C/ASM4]	2.59 ± 0.064	2.6 ± 0.064	2.58 ± 0.074	2.69 ± 0.046
ANLEDIIFEIEKPLVVP [RRP6]	2 ± 0.085	2.79 ± 0.094	2.62 ± 0.08	2.03 ± 0.11
RERIKRGAHVEKTMVKK [PRP8]				2.78 ± 0.18
PNINTWQQVTALAQQKL [GAL11]	2.2 ± 0.058	2.23 ± 0.064	2.11 ± 0.085	2.08 ± 0.054
TQEFSKNYTTETDNEMN [SIR3]	3.31 ± 0.12	3.49 ± 0.064	3.64 ± 0.075	3.29 ± 0.055

Sequence	protein stability index (doa10∆)	protein stability index (pdr5∆)	protein stability index (san1∆)	protein stability index (ubr1∆)
TSNGLKKNPNWLEEYHP [FAS1]	3.3 ± 0.17	3.22 ± 0.15	3.48 ± 0.098	3.38 ± 0.11
KTVDSSIQPIESNIKMT [SSN2]	2.47 ± 0.082	2.72 ± 0.1	2.86 ± 0.083	2.74 ± 0.052
SLDNKTLDDLVTKWTNQ [YJL041W/NSP1]	3.08 ± 0.056	3.07 ± 0.069	3.05 ± 0.062	3.17 ± 0.043
SHVENLEEKLYQMQSNY [YIL149C/MLP2]	2.45 ± 0.051	2.84 ± 0.05	2.54 ± 0.05	2.86 ± 0.044
YQWRDLIARRDDESPRF [RRP6]	3.23 ± 0.077	3.42 ± 0.067	3.24 ± 0.057	3.26 ± 0.068
SKRPQLGEIPNPMKKHK [SIR4]	2.44 ± 0.075	2.53 ± 0.059	2.23 ± 0.089	2.69 ± 0.079
IMKFQSLSDNDLAVCAT [ECM29]	2.03 ± 0.076	2.46 ± 0.067	2.69 ± 0.062	2.77 ± 0.064
DIDDELNELETLIKKKQ [SMC2]	3.31 ± 0.16	3.11 ± 0.1	2.99 ± 0.078	3.24 ± 0.078
VTRIINSSEIQSAIRPA [RPL4A]	2.32 ± 0.083	2.54 ± 0.12	2.37 ± 0.07	2.26 ± 0.096
PNETSEIAQANSRNAIR [RPL19A]	2.7 ± 0.15	2.92 ± 0.095	2.54 ± 0.14	3.05 ± 0.13
TEENIKGETNSEISIID [RRP45]	2.96 ± 0.07	3.16 ± 0.064	3.3 ± 0.055	3.22 ± 0.053
PTGGKAKLSEGTSFRRK [RPS27A]	3.4 ± 0.081	3.33 ± 0.11	3.33 ± 0.065	3.33 ± 0.059
NISRDFQSYIVSSLPGS [COR1]	1.63 ± 0.093	2.14 ± 0.095	2.08 ± 0.098	1.85 ± 0.048
VTKGGTVENPLRNWEEL [PRP28]	2.55 ± 0.073	2.71 ± 0.1	3.33 ± 0.055	2.89 ± 0.057
LSSDDLLGKESFKKIIK [YCS4]	3.25 ± 0.19	3.08 ± 0.22	3.39 ± 0.063	3.57 ± 0.1
ILKWVQWSRIVLQNVFK [MED1]	2.98 ± 0.087	3.13 ± 0.12	3.29 ± 0.067	3.07 ± 0.068
KYACLAIRKNGQIDFWY [SIN4]	1.98 ± 0.067	2.16 ± 0.077	2.08 ± 0.071	2.39 ± 0.045
TQAIADIVQYHLELYTS [PRE3]	2.07 ± 0.064	1.72 ± 0.057	1.77 ± 0.069	2.01 ± 0.042
PYPKSRYNRAVPDSKIR [RPL10]	3.03 ± 0.049	3.19 ± 0.052	3.05 ± 0.043	3.04 ± 0.048
SLYQVDPSGSYFPWKAT [PRE8]	2.87 ± 0.1	2.66 ± 0.11	2.65 ± 0.093	3.25 ± 0.099
MSDSPLSKRQKRKSAQE [SMC4]	3.46 ± 0.17	3.16 ± 0.11	3.04 ± 0.12	3.46 ± 0.27
NTAPGLGNTVSTQPSFA [YGR119C/NUP57]	3.04 ± 0.11	2.96 ± 0.079	2.9 ± 0.098	3.04 ± 0.056
QRKNIQSLELMIYDDAH [BRR2]	2.39 ± 0.047	2.61 ± 0.051	2.54 ± 0.066	2.46 ± 0.049
IKIVYALTTIKGVGRRY [RPS18A]	1.87 ± 0.12	1.95 ± 0.078	2.06 ± 0.17	1.61 ± 0.075
LAQKKAHLAEIQLNGGS [RPL3]				2.85 ± 0.12
